IC50 for neutralizing pseudovirus data for one molecule are collected here from patent publication US20240417446A1.

Assay [1] addresses SARS-CoV-2 Delta variant spike protein on pseudovirus (SARS-CoV-2), P0DTC2. The assay is described as follows: cell-based or functional assay.
Assay [2] has as its target SARS-CoV-2 Beta variant spike protein on pseudovirus (SARS-CoV-2), P0DTC2. The assay is described as follows: cell-based or functional assay.

B1: NCI-CoV-S2A9 (VNAR)
chain: ARVDQTPRSVTKETGESLTINCVLRDASYALGRTCWYRKKSGSTNEESISKGGRYVETVNSGSKSFSLRINDLTVEDGGTYRCGVSTPWSCDYGPLCFYAACGDGTVVTVN
B1: the values for the IC50 for neutralizing pseudovirus in assay [1] and in assay [2] were 1.88 µM and 2.21 µM, respectively.
